In IntAct's records for PubMed 18498651:

B1: Double-stranded RNA-binding protein Staufen homolog 1 (Homo sapiens), O95793-2 (parent)
chain: MKLGKKPMYKPVDPYSRMQSTYNYNMRGGAYPPRYFYPFPVPPLLYQVELSVGGQQFNGKGKTRQAAKHDAAAKALRILQNEPLPERLEVNGRESEEENLNKSEISQVFEIALKRNLPVNFEVARESGPPHMKNFVTKVSVGEFVGEGEGKSKKISKKNAAIAVLEELKKLPPLPAVERVKPRIKKKTKPIVKPQTSPEYGQGINPISRLAQIQQAKKEKEPEYTLLTERGLPRRREFVMQVKVGNHTAEGTGTNKKVAKRNAAENMLEILGFKVPQAQPTKPALKSEEKTPIKKPGDGRKVTFFEPGSGDENGTSNKEDEFRMPYLSHQQLPAGILPMVPEVAQAVGVSQGHHTKDFTRAAPNPAKATVTAMIARELLYGGTSPTAETILKNNISSGHVPHGPLTRPSEQLDYLSRVQGFQVEYKDFPKNNKNEFVSLINCSSQPPLISHGIGKDVESCHDMAALNILKLLSELDQQSTEMPRTGNGPMSVCGRC

Variants of: B1
Conditions: with gag_hv1h2 gag

Variant | effect of a mutation on the interaction
F135A | disrupting interaction
